The target of test [1] is RSV fusion glycoprotein (RSV F) on RSV-A2 virus (respiratory syncytial virus, UniProt P03420 26-574). Description: cell-based or functional assay.
Test [2] has as its target RSV prefusion F (preF), subtype B (respiratory syncytial virus, subtype B). Description: BLI, IgG.
Test [3] concerns the target RSV prefusion F (preF), subtype A (respiratory syncytial virus, subtype A, UniProt P03420 26-513). Put plainly: BLI, IgG.
The target in test [4] is T1, RSV postfusion F (postF), subtype A (respiratory syncytial virus, subtype A, UniProt P03420 26-513).
T1 construct: also called F ΔFP; Postfusion subtype A
Description: BLI, IgG. Background: In BLI a coated tip is dipped into the sample, and binding shifts an interference pattern.

Data on 18 molecules can be found in patent publication US20260258115A1 (MAPP BIOPHARMACEUTICAL, published 2026).

Positions count from the first letter of the chain named.

B1: ADI-41358 (antibody, V domains shown)
VH: EVQLVESGGGLVKPGGSLRLSCEASGFTLTSYSMNWVRQAPGKGLEWVSSISSSSTYIHYADSVKGRFTISRDNAKNSLYLQMNSLRAEDTAVYYCARDKVMVTKYNGMDVWGQGTTVTVSS
VL: QSVLTQPPAVSGAPGQRVTISCTGSSSNIGAGHDVHWYQQLPGTAPKLLIYGNSNRPSGVPDRFSGSKSGTSASLAITGLQAGDEADYYCQSYDSSLSGSLFGGGTKLTVL
Regarding B1, the “Neutralization IC50 (RSV subtype A)” value in test [1] is 0.389 µg/mL.

B2: ADI-41359 (antibody, V domains shown)
VH: EVQLVESGGGLVKPGGSLRLSCAASGFTISGYSMDWVRQAPGKGLEWVSSISSSSSYIHYADSVKGRFTISRDNAKNSLYLQMNSLRAEDTAVYYCATNPREGGAFDIWGQGTTVTVSS
VL: QSVLTQPPSMSGAPGQRVTISCTGSSSNIGAGYDVHWYQQLPGTAPKLLIYNNSNRPSGVPDRFSASKSGTSASLAITGLQAEDEADYYCQSYDSSLSGYVFGTGTRVTVP
In the case of B2, the “Neutralization IC50 (RSV subtype A)” value in test [1] was above 25 µg/mL.

B3: ADI-21050 (antibody, V domains shown)
VH: QVQLVQSGAEVKKPGASVKVSCTASGYTFANNGISWVRQAPGQGLEWMGWISAYNGNTKYAQTVQGRVTLTTDTSTSTAYMELRSLTSDDTAVYYCAREMGVDAAATFDYWGQGTLVTVSS
VL: EIVMTQSPLFLSVTLGQPASISCRSSQSLVYSDTNTYLTWFQQRPGQSPRRLIYKVSNRDSGVPDRFSGSGSGTYFTLKISRVEAEDIGVYYCMQAIHWPRTFGQGTKLEIK
By Kd is commonly meant the free concentration of one partner at which half of the binding sites on the other are occupied at equilibrium, for simple one-to-one binding. Read a high Kd as a looser complex. For the molecule B3, the values for the Kd in test [2] and in test [3] were 0.323 nM and 0.362 nM, respectively. In test [4], the binding result is on record as “no binding”.

B4: ADI-21051 (antibody, V domains shown)
VH: QVQLVESGPGLVRPSQTLSLTCNVSGDFISRGTYYWSWIRQSAGKGLEWIGRIYTSGITDYSPSLKSRVTISVDTSKNQFFLKLASVTAADTAVYYCARGRGYYDSPWGQGTLVTVSS
VL: ETTLTQSPATLSLSPGERATLSCRASESVSTFLGWYQQKPGQAPRLLIYDASNRASGVPARFSGSGSGTDFTLTISSLEPEDFAVYYCQLRNKWLTFGPGTKVDIK
Consider B4, for which the Kd in test [2] was found to be 0.335 nM; in test [3], 0.292 nM. Moreover, the binding result in test [4] is “no binding”.

B5: ADI-21033 (antibody, V domains shown)
VH: QVQLVQSGAEVRKPGDSLKISCKFSENIFTTYYWTGWVRQMPGRGLEWMGIIFPGDSDTRYSPSFQGHVTISVDKSIATAFLQWSSLKASDSAMYYCARAKYEGSFDMWGQGTMVTVSS
VL: DIQVTQSPSSLSASVGDRVSITCQASQDIRNRLNWYQQKPGKAPKLLIYDASILETGVPSRFSGSGSGTDFTFSISSLQPEDFATYYCQQYDSFSLFTFGPGTKVEIK
As for B5, the Kd in test [2] came out at 1.4 nM; in test [3] it was 0.193 nM. Also, the binding result in test [4] is listed as “no binding”.

B6: ADI-21038 (antibody, V domains shown)
VH: QVQLVQSGAEVKKPGESLKISCQGFGFSFTSYWIGWVRQTPGKGLEWMGTIYPGDSETRKSPSIQGQVTFSADRSISTAYLQWSGLTASDTAVYYCARLKGGWGTTMAGIRDYFYYGLDVWGQGTTVTVSS
VL: EIVLTQSPGTLSLSPGERATLSCRASQSVSSSYLAWYQQKPGQAPRLLIYGASSRATGIPDRFTGSGSGTDFTLTISRLEPEDFAVYYCQQYATSLGGFTFGPGTKVDIK
On to B6, for which the Kd in test [2] stood at 16 nM; in test [3], 2.93 nM; in test [4] it was 1.45 nM.

B7: ADI-41357 (antibody, V domains shown)
VH: EVQLVESGGGLVQPGGSLRLSCAASGFTFSTYGMNWVRQAPGKGLEWVSYIGGSGRIIYYADSVKGRFTISRDNAKNSLYLQMNSLRAEDTAVYYCARDQHIVLVTGSTPDYWGQGTLVTVSS
VL: EIVLTQSPSSLSASVGDRVTITCRASHAISNYLAWFQQKPGKAPKSLIYAASTLQSGVPSKFSGSGSGTDFTLTISSLQPEDFATYYCQQYSSYPLTFGGGTKVEIK
In the case of B7, the “Neutralization IC50 (RSV subtype A)” value in test [1] was above 25 µg/mL.

B8: ADI-41351 (antibody, V domains shown)
VH: QVQLVQSGGGLVQPGGSLRLSCSASGFTFSSKSMHWVRQAPGKGLEYVSAIRSDGVSTYYGDSVKGRFTVSRDNAKNTVYLRMSSLRREDTAVYYCVKGPYGDFQYNWFDTWGQGTLVTVSS
VL: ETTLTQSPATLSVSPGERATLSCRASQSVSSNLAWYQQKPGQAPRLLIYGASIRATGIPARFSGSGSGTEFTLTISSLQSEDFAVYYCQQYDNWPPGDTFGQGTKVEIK
B8: the “Neutralization IC50 (RSV subtype A)” value in test [1] came to 0.149 µg/mL.

B9: ADI-21029 (antibody, V domains shown)
VH: QVQLVQSGAEVRKPGESLKISCKASGYSFTNYWIGWVRQMPGKGLEWMGIVYPADSHPVYSPSFQGQVTFSTDKSINTAYLQWSSLKASDTAMYFCARRDGGTDYLSDAFDIWGQGTMVTVSS
VL: DIVMTQSPSSLSASVGDRVTITCRTSQSIRRYLNWYQQKPGKAPKLLIYAASSLQSGVPSRFSGSGSGTDFTLTISSLQPEDFATYYCQQSYSTPNTFGQGTKVEIK
Turning to B9, the values for the Kd in test [2] and in test [3] were 8.38 nM and 3.77 nM, respectively. Also, in test [4], the binding result is on record as “no binding”.

B10: ADI-21063 (antibody, V domains shown)
VH: EVQLVESGGGLVQPGGSLRLSCSASGFTFRTYVMQWVRQAPGKGLEYVSAISSDGGSTDYADSVKGRFTVSRDNSKNTLYLQMSSLRAEDTAVYYCVKRGEGGNDYLYYYMDVWGKGTTVTVSS
VL: B9 VL with V3Q, M4V, T25A, R30T, R31N, L46V, S93L, T94R, N96P, Q100G
As for B10, the Kd was 0.777 nM in test [2] and 0.834 nM in test [3]. In test [4], the binding result is “no binding”.

B11: ADI-21059 (antibody, V domains shown)
VH: QVQLVQSGAEVKRPGDSLKISCKGSGYSFTTSWIGWVRQVPGKGLEWMGIIYPGDSNTVYGPSLQGQVTISADKSTNTAYLQWSSLKASDTAMYYCARRDGGTDYLSDAFDIWGQGTFVTVSS
VL: B9 VL with V3Q, S28N, R30V, R31I, Y49F, Q55P, F83V, S93N, N96G, E105D
For the molecule B11, the Kd worked out at 9.43 nM in test [2] and 3.05 nM in test [3]. Besides, the binding result in test [4] is “no binding”.

B12: ADI-21044 (antibody, V domains shown)
VH: QVQLVQSGAELKKPGESLKISCKTSGYTFANYWIGWVRQMPGKGLEWMGIIYPGDSDTRYSPSFQGQVTFSADKSINSAYLQWHSLKASDSAIYYCARRFSPDYSDGAAPPTLSDAFDVWGQGTTVTVSS
VL: B9 VL with T25A, S28N, R30N, R31I, S53T, G68A, S93R, T97D, Q100R, E105D
Consider B12, for which the values for the Kd in test [2] and in test [3] were 5.85 nM and 4.51 nM, respectively. Also, the binding result in test [4] is “no binding”.

B13: ADI-21030 (antibody, V domains shown)
VH: EVQLVESGGGLVKPGGSLRLSCAASGFKFSTYYMSWIRQAPGKGLEWVSNISGGSSYSNHADSVKGRFTISRDNAKNSLYLEMNSLRAEDTAVYYCAREDLMGVSGLAYFEYWGQGILVTVSS
VL: QPVLTQPPSVSGAPGQRVTISCTGRSSNIGAGYDVNWYKQLPGAVPKVLIYGNTNRPSGVPDRFSGSKSGNSASLAITGLQAEDEADYYCQSYDRNLGYVFGTGTKLTVL
In the case of B13, the Kd in test [2] was 0.301 nM; in test [3], 0.257 nM. Besides, the binding result in test [4] is “no binding”.

B14: ADI-21052 (antibody, V domains shown)
VH: QVQLVQSGAEVKKPGASVKVSCKASGYTFTSYGISWVRQAPGQGLEWMGWISAYNGNTNYAQNLQGRVTMTTDTSTSTAYMELRSLRSDDTAMYYCARDAFSRVGYWYFDLWGRGTLVTVSS
VL: SYELTQPPSVSVAPGQAARITCGGNNIGSKTVHWYQQKPSQAPVLVVYDDSDRPSGIPERFSGSNSGNTATLTISRVEAGDEADYYCQVWDSSGDHPVFGGGTKLTVL
notes: also called Ab 300
Consider B14, for which the values for the Kd in test [2], in test [3] and in test [4] were 0.11 nM, 0.126 nM and 18.4 nM, respectively.

B15: ADI-21045 (antibody, V domains shown)
VH: EVQLVESGGGLVKPGGSLRLSCLASGFKFRSYSMNWVRQAPGTGLVWVASISASSSFIFYADSLKGRFTISRDNDKNSLYLQMNSLTVEDTAVYYCVRDMSGISSGGKTFDYWGQGTLVTVSS
VL: QSVLTQPPSVSGAPGQRVTISCTGSSSNLGAGYDVQWYQQLPGTAPKLLIYGNNNRPSGVPDRFSGSKSGTSASLAITGLRAEDEADYYCQSYDTSPVFGGGTKLTVL
As for B15, the Kd is 0.596 nM in test [2] and 0.456 nM in test [3]. Moreover, in test [4], the binding result is given as “no binding”.

B16: ADI-41353 (antibody, V domains shown)
VH: EVQLVESGVEVKKPGESLKISCRGSGYSFHNYWIAWVRQKPGKGLEYMGTIYVDDSDTIYSPSFQGEVTISADKSINTAYLQWNSLKASDTANYYCARQMDFYFDVWGRGTLVTVSS
VL: SYELTQPPSVSVSPGQTARITCSGDPLPRESAYWYQQKPGQAPVVVIFNDIERPLGIPERFSGSRSGTTVTLTISGAQAEDEADYYCQSADSRKTFVFGSGTKLTVL
B16: the “Neutralization IC50 (RSV subtype A)” value in test [1] is above 25 µg/mL.

B17: ADI-21034 (antibody, V domains shown)
VH: QVQLQQSGAEVKKPGESLTISCKGSGYSFGNYWISWVRQMPGKGLEWMGRIDPSDSYVNYSPSFQGNVTMSVDKSSSTAYLQWSSLKASDTAMYYCARLAGYSTLWGQGTLVTVSS
VL: EIVLTQSPGTLSLSPGERATLSCRASQSFGSIYLAWYQQKPGQAPRLLIYGTSSRATGIPDRFSGSGSGTDFTLTIRRLEPEDFAVYYCLYYGSSPGATFGPGTKVDIK
Consider B17, for which the figures for the Kd in test [2] and in test [3] were 0.174 nM and 0.145 nM, respectively. Further, the binding result in test [4] is reported as “no binding”.

B18: ADI-21027 (antibody, V domains shown)
VH: QVQLQESGPGLVKPSGTLSLTCVVSGGSIRSHNYWTWVRQPPGKGLEWIGEIYHSGNTNYNPSLKSRVTLSIDKSKNVFSLRLNSVTAADTAVYYCVGGGPFAPYYFENWGQGTLVTVSS
VL: QSVLTQPPSVSGAPGQRVTISCTGSSSNIGAGYAVHWYHQLPGTAPKLLIYDNNNRPSGVPDRFSGSKSGSSASLAITGLQAEDEADYYCQSYDRSLSGYVFGTGTKLTVL
Turning to B18, the Kd was 0.34 nM in test [2] and 0.296 nM in test [3]. Moreover, the binding result in test [4] was “no binding”.
